Experimental data as given in patent publication US6100053A, “Microbial transglutaminases, their production and use” (priority 1994, dated 2000).

molecular target: α-casein

Substance	Units/ml (putrescine assay)
transglutaminase preparation (culture broth) of Agaricus sp. (pool or library)	0.15 Units/ml
transglutaminase preparation (culture broth) of Alternaria alternata (pool or library)	0.16 Units/ml
transglutaminase preparation (culture broth) of Amanita virosa (pool or library)	0.14 Units/ml
transglutaminase preparation (culture broth) of Amylostereum chailletii (pool or library)	0.44 Units/ml
transglutaminase preparation (culture broth) of Antrodia serialis (pool or library)	0.8 Units/ml
transglutaminase preparation (culture broth) of Armillaria sp. (pool or library)	0.62 Units/ml
transglutaminase preparation (culture broth) of Ascotricha erinacea (pool or library)	0.15 Units/ml
transglutaminase preparation (culture broth) of Aspergillus foetidus (pool or library)	0.23 Units/ml
transglutaminase preparation (culture broth) of Aspergillus giganteus (pool or library)	0.19 Units/ml
transglutaminase preparation (culture broth) of Aspergillus heteromorphus (pool or library)	0.12 Units/ml
transglutaminase preparation (culture broth) of Aspergillus puniceus (pool or library)	0.12 Units/ml
transglutaminase preparation (culture broth) of Aspergillus tamarii (pool or library)	0.16 Units/ml
transglutaminase preparation (culture broth) of Auricularia polytricha (pool or library)	0.18 Units/ml
transglutaminase preparation (culture broth) of Beauveria calendonica (pool or library)	0.25 Units/ml
transglutaminase preparation (culture broth) of Beauveria cylindrospora (pool or library)	0.24 Units/ml
transglutaminase preparation (culture broth) of Botryosphaeria rhodina (pool or library)	0.32 Units/ml
transglutaminase preparation (culture broth) of Byssochlamys fulva (pool or library)	0.24 Units/ml
transglutaminase preparation (culture broth) of Carponia solliomaris (pool or library)	0.11 Units/ml
transglutaminase preparation (culture broth) of Cercospora beticola (pool or library)	1.58 Units/ml
transglutaminase preparation (culture broth) of Cercospora carisis (pool or library)	13 Units/ml
transglutaminase preparation (culture broth) of Cercospora fusimaculans (pool or library)	1.3 Units/ml

Substance	Units/ml (putrescine assay)
transglutaminase preparation (culture broth) of Cercospora hayi (pool or library)	0.26 Units/ml
transglutaminase preparation (culture broth) of Cercospora sesami (pool or library)	0.24 Units/ml
transglutaminase preparation (culture broth) of Cercospora traversiana (pool or library)	0.53 Units/ml
transglutaminase preparation (culture broth) of Chaetomium funicolum (pool or library)	0.16 Units/ml
transglutaminase preparation (culture broth) of Chamaemyces fracidus (pool or library)	0.2 Units/ml
transglutaminase preparation (culture broth) of Cladosporium cladosporiodes (pool or library)	0.22 Units/ml
transglutaminase preparation (culture broth) of Cladosporium oxysporum (pool or library)	0.19 Units/ml
transglutaminase preparation (culture broth) of Cladosporium resinae (pool or library)	0.14 Units/ml
transglutaminase preparation (culture broth) of Cladosporium sphaeospermum (pool or library)	1.07 Units/ml
transglutaminase preparation (culture broth) of Cochliobolus sativus (pool or library)	0.09 Units/ml
transglutaminase preparation (culture broth) of Coniothyrium cerealis (pool or library)	0.13 Units/ml
transglutaminase preparation (culture broth) of Coprinus cinereus (pool or library)	0.14 Units/ml
transglutaminase preparation (culture broth) of Coprinus sp. (pool or library)	0.44 Units/ml
transglutaminase preparation (culture broth) of Cunninghamella elegans (pool or library)	0.23 Units/ml
transglutaminase preparation (culture broth) of Curvularia borreiae (pool or library)	0.28 Units/ml
transglutaminase preparation (culture broth) of Dendryphiella salina (pool or library)	0.96 Units/ml
transglutaminase preparation (culture broth) of Dimorphosporum disporatrichum (pool or library)	0.42 Units/ml
transglutaminase preparation (culture broth) of Fusarium armeniacum (pool or library)	0.19 Units/ml
transglutaminase preparation (culture broth) of Fusarium decemcellulare (pool or library)	0.1 Units/ml
transglutaminase preparation (culture broth) of Fusarium dimerum (pool or library)	0.25 Units/ml
transglutaminase preparation (culture broth) of Fusarium flocciferum (pool or library)	0.15 Units/ml

Substance	Units/ml (putrescine assay)
transglutaminase preparation (culture broth) of Fusarium merismoides (pool or library)	0.16 Units/ml
transglutaminase preparation (culture broth) of Fusarium redolens (pool or library)	0.16 Units/ml
transglutaminase preparation (culture broth) of Gymnopilus junonius (pool or library)	0.2 Units/ml
transglutaminase preparation (culture broth) of Halosphaeriopsis mediosetigera (pool or library)	0.34 Units/ml
transglutaminase preparation (culture broth) of Hortea werneckii (pool or library)	0.95 Units/ml
transglutaminase preparation (culture broth) of Humicola alopallonella (pool or library)	0.76 Units/ml
transglutaminase preparation (culture broth) of Hygrophoropsis aurantiaca (pool or library)	0.17 Units/ml
transglutaminase preparation (culture broth) of Hymenochaete corticola (pool or library)	1.31 Units/ml
transglutaminase preparation (culture broth) of Hypholoma fasciculare (pool or library)	0.14 Units/ml
transglutaminase preparation (culture broth) of Kuhneromyces variabilis (pool or library)	0.14 Units/ml
transglutaminase preparation (culture broth) of Lignincola sp. (pool or library)	0.15 Units/ml
transglutaminase preparation (culture broth) of Lulworthia uniseptata (pool or library)	0.36 Units/ml
transglutaminase preparation (culture broth) of Lyophyllum sp. (pool or library)	0.25 Units/ml
transglutaminase preparation (culture broth) of Monodictys pelagica (pool or library)	2.31 Units/ml
transglutaminase preparation (culture broth) of Mucor aligarensis (pool or library)	0.31 Units/ml
transglutaminase preparation (culture broth) of Mucor luteus (pool or library)	0.34 Units/ml
transglutaminase preparation (culture broth) of Myrothecium roridum (pool or library)	0.13 Units/ml
transglutaminase preparation (culture broth) of Neosartorya quadricineta (pool or library)	0.22 Units/ml
transglutaminase preparation (culture broth) of Nidula sp. (pool or library)	0.14 Units/ml
transglutaminase preparation (culture broth) of Nodulisporium sp. (pool or library)	1.2 Units/ml
transglutaminase preparation (culture broth) of Panaeolus papilionaceus (pool or library)	0.15 Units/ml
